# Results taken from patent US20230272011A1 (AVACTA LIFE SCIENCES, published 2023).
# B1: HSA-41 (designed binder)
# chain: MIPRGLSEAKPATPEIQEIVDKVKPQLEEKTNETYGKLEAVQYKTQVLANFFQRRWPGSTNYYIKVRAGDNKYMHLKVFNGPWKFRNTDRGADRVLTGYQVDKNKDDELTGFHHHHHH
# notes: also called HSA-41 parent; HSA-41 AH parent
# Key:
# [1] = molecular target: T1, cynomolgus serum albumin (cynomolgus); assay: binding ELISA, coated albumin, pH 7.4
# T1 construct: also called CSA; cyno serum albumin
# [2] = molecular target: rabbit serum albumin (rabbit, UniProt P49065 25-608); assay: binding ELISA, coated albumin, pH 7.4
# [3] = molecular target: equine serum albumin (equine, UniProt P35747 25-607); assay: binding ELISA, coated albumin, pH 7.4
# [4] = molecular target: canine serum albumin (canine, UniProt P49822 25-608); assay: binding ELISA, coated albumin, pH 7.4
# [5] = molecular target: porcine serum albumin (porcine, UniProt P08835 25-607); assay: binding ELISA, coated albumin, pH 7.4
# [6] = molecular target: rat serum albumin (rat, UniProt P02770 25-608); assay: binding ELISA, coated albumin, pH 7.4
# [7] = molecular target: T2, human serum albumin (human, UniProt P02768 25-609); assay: binding ELISA, coated albumin, pH 7.4
# T2 construct: mature; Bought protein; biotinylated in the Octet and HTRF assays; also called HSA; HuSA
# [8] = molecular target: T3, mouse serum albumin (mouse, UniProt P07724 25-608); assay: binding ELISA, coated albumin, pH 7.4
# T3 construct: also called MSA
# [9] = molecular target: T2, human serum albumin; assay: Octet biolayer interferometry, pH 7.4
# Procedure: Biotinylated antigen was captured onto SA sensors at 1 μg/ml for 600 seconds in a buffer comprising PBS-T (0.01% Tween 20)+1% casein at either pH 6.0 or 7.4. Association was carried out for 300 seconds and dissociation for 600 seconds, and regeneration was performed using 10 mM glycine pH 1.5 (GE Healthcare) for 3×5 seconds. All steps were carried out at 1000 rpm and 25° C. Purified AFFIMER® polypeptide in two-fold serial dilutions was analyzed at a starting concentration of approximately 10× K_{D value}. Kinetics analyses were carried out using the Octet data analysis software, subtracting the reference sensor (loaded with antigen), aligning the Y-axis to baseline, and using inter-step correction to align association to dissociation. Savitzky-Golay filtering was applied and the data processed. Analysis of the data was carried out with a 1:1 model, global fit, Rₘₐₓ unlinked by sensor.
# AFFIMER® polypeptides were incubated with AcTEV for 1 hour at 30° C. as recommend by the manufacturer (Invitrogen) and removal of cleaved His tag by binding NiNTA resin (Generon) and collecting the cleaved protein flow through. […] Pharmacokinetic profile of IV-injected His tag cleaved AFFIMER® protein compared to C-terminally His-tagged AFFIMER® protein was evaluated.
# Chain of rat serum albumin (P02770 25-608 limits assumed): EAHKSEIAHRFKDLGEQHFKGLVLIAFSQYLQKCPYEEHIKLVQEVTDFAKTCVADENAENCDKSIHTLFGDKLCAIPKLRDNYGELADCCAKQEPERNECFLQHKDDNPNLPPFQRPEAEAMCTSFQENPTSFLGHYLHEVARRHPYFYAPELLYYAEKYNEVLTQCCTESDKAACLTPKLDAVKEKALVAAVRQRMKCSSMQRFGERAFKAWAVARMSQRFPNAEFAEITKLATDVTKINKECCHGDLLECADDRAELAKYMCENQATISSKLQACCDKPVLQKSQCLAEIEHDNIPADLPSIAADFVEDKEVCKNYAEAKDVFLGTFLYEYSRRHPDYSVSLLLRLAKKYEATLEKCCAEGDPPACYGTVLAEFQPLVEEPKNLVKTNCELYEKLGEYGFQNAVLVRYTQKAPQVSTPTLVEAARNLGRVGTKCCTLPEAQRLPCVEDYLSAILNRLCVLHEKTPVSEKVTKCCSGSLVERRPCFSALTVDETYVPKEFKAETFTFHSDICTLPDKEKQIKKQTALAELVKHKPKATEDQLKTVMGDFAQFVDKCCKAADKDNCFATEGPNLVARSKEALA
# T3 sequence (P07724 25-608 limits assumed): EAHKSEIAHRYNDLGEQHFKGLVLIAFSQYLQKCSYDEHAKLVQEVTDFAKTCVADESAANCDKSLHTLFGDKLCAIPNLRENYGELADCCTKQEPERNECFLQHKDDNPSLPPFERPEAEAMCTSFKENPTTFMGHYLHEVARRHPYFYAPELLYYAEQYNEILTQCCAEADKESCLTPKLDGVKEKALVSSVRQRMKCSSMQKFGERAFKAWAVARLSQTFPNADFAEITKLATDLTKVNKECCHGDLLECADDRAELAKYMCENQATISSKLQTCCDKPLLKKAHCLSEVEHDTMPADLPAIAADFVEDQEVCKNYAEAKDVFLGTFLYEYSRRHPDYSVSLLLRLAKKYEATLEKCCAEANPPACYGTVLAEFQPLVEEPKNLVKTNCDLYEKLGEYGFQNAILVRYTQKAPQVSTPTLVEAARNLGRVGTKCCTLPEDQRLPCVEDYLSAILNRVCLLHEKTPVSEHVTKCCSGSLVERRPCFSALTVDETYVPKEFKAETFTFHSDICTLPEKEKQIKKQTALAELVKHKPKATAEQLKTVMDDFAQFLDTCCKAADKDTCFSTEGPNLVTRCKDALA
# Chain of canine serum albumin (P49822 25-608 limits assumed): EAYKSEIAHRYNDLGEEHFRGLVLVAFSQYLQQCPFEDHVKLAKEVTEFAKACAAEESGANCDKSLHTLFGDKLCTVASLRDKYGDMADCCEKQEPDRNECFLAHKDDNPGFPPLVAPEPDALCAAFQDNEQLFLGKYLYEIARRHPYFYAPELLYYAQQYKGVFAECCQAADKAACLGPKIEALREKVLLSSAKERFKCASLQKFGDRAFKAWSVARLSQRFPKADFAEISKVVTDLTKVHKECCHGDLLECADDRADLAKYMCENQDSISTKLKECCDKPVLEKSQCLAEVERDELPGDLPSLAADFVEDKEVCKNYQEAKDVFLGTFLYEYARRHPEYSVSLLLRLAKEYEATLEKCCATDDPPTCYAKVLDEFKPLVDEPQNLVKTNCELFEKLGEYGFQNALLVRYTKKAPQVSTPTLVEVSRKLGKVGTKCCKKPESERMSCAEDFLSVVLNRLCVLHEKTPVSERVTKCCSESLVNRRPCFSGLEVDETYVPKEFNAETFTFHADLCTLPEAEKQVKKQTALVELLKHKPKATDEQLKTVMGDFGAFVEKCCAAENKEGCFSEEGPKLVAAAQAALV
# Chain of porcine serum albumin (P08835 25-607 limits assumed): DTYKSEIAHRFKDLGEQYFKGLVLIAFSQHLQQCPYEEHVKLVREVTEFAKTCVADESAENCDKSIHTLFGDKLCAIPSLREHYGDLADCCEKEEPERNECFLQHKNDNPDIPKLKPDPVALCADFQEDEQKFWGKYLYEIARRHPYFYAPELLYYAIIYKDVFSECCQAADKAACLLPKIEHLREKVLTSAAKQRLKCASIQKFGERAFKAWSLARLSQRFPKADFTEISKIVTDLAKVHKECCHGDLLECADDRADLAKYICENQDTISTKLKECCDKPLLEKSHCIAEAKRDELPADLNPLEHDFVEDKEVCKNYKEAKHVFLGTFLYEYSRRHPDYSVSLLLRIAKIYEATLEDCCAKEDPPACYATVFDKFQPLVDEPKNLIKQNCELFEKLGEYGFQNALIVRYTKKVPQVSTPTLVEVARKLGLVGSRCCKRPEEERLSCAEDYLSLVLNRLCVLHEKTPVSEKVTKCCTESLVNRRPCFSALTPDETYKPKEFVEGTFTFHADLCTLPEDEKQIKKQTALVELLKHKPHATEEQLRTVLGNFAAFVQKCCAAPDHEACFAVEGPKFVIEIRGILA
# Chain of rabbit serum albumin (P49065 25-608 limits assumed): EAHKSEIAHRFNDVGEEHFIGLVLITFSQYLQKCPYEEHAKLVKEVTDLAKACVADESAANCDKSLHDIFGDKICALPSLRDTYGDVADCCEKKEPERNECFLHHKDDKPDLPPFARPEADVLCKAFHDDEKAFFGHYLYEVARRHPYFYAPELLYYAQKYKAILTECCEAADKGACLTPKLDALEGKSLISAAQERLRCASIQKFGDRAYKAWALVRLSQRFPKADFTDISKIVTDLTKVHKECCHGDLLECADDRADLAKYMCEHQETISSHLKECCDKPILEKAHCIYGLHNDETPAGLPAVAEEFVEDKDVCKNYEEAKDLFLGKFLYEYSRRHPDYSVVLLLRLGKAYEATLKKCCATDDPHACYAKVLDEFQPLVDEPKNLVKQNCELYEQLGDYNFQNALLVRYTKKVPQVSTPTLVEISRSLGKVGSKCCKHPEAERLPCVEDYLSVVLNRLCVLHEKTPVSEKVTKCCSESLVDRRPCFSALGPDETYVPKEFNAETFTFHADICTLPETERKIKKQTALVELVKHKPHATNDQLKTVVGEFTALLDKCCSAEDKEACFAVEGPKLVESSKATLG
# Chain of equine serum albumin (P35747 25-607 limits assumed): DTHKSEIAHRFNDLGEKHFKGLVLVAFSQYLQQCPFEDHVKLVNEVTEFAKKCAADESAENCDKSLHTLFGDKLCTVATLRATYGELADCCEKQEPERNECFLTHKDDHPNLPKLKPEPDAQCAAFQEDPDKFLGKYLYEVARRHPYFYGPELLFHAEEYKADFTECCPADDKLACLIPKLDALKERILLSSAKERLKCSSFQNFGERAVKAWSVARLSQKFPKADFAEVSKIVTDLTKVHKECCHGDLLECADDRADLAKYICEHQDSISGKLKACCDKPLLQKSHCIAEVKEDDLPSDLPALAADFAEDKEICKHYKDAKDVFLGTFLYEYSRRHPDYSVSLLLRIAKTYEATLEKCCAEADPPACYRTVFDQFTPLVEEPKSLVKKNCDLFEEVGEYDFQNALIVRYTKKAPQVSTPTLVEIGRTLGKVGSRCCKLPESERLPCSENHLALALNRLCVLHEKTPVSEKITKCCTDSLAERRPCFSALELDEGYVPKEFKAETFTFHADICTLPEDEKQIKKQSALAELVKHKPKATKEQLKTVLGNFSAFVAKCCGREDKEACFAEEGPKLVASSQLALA
# T1 sequence (A2V9Z4 25-608): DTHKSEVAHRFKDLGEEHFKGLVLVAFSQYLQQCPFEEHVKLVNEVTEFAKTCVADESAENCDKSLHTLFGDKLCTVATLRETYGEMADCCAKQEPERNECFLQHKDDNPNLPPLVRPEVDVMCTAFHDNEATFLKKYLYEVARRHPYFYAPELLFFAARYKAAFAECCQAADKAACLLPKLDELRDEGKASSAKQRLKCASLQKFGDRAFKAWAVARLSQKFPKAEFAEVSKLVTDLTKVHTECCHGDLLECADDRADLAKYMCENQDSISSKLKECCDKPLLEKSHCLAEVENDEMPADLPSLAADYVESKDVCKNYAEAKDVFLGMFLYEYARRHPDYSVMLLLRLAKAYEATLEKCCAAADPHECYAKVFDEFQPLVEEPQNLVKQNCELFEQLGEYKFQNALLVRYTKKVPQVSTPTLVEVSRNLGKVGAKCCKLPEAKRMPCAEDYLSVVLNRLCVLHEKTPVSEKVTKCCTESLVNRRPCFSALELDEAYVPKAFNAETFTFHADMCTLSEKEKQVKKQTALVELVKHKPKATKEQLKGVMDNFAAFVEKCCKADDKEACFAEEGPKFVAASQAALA
binder,measurement,setting,value
B1,EC50,[1],12.8 nM
same,EC50,[2],381 nM
same,EC50,[3],150 nM
same,EC50,[4],21.5 nM
same,EC50,[5],51.7 nM
same,EC50,[6],4.18 nM
same,EC50,[7],0.05 nM
same,EC50,[8],42.5 nM
same,Kd,[9],7.74 nM
